The text below walks through data of patent US20220204644A1 (MAB DISCOVERY, published 2022).

Test [1] deals with T1, HER2 sub-domain I, recombinant (human, UniProt P04626 23-217, limits assumed).
T1 construct: domain: sub-domain I; also called HER2 domain I
Kind of test: ELISA, coated HER2 domain. Here is the method:
(§1) Recombinant Her2 domains (full length ECD purchased from Biozol, ECD domains produced at Mab Discovery), were coated on a 384-well Nunc™ MaxiSorp™ plate at optimized concentrations ([…]) in PBS for one hour at room temperature. After washing three times with wash buffer (PBS, 0.1% Tween), plates were blocked with PBS, 2% BSA, 0.05% Tween for one hour at room temperature. Plates were washed again three time with wash buffer and antibodies at a concentration of 10 μg/ml in PBS, 0.5% BSA, 0.05% Tween were incubated for one hour at room temperature. After 3 washes in wash buffer, wells were incubated with 12.5 μl of a 1:5000 dilution of anti-human peroxidase-linked, species specific F(ab)2 Fragment from goat (AbD Serotec) in ELISA buffer for one hour at room temperature. Wells were washed six times with wash buffer and 15 μl/well TMB substrate solution (Invitrogen) were added. After 10 minutes at room temperature 15 μl Stop solution (1M HCl) were added per well and absorbance at 450 and 620 nm wavelength was measured using a Tecan M1000 microplate reader.
(In general: In an ELISA, binding on a coated surface is turned into a signal by an enzyme label.)

Test [2] concerns the target T2, HER2 full-length extracellular domain (ECD), recombinant (human, UniProt P04626 23-652).
T2 construct: extracellular domain; also called full length ECD; HER2 full-length ECD
Kind of test: ELISA, coated HER2 ECD, antibody at 10 µg/ml. On the procedure: as §1

B1: B100 anti-HER2 monoclonal antibody (antibody, V domains shown)
VH: QSVEESGGRLVTPGTPLTLTCTVSGFSLSNYGVSWVRQAPGKGLEYIGIISGSGFTYYASWAKGRFTISKTSTTVDLKITSPTTKDTATYFCARGVVPGYNAGGLWGQGTLVTVSS
VL: DIVMTQTPASVSEPVGGTVTIKCQASQGISTALAWYQQKPGQRPKLLIYSASTLASGVSSRFKGSGSGTQFTLTISDLECADAATYYCQCTAAGSVSVGAFGGGTEVVVN
notes: It was detected in the ELISA with an anti-human F(ab)2 conjugate; also called B100 antibody
As for B1, the binding result was “no binding (tested: 10 µg/ml)” in test [1] and “binds” in test [2].
